According to patent US20050226876A1:

What was measured:
[1] = molecular target: Fcγ receptors on human granulocytes (FcγRII and RIII); assay: FACS on granulocytes from human blood, antibody 10 µg/ml; no antibody: 1.2
[2] = molecular target: Fcγ receptors on human monocytes (FcγRI and RII); assay: FACS on monocytes from human blood, antibody 10 µg/ml; no antibody: 8.5
[3] = molecular target: Fcγ receptor on human NK cells (FcγRIII) (human) (UniProt P08637); assay: FACS on NK cells from human blood, antibody 10 µg/ml; no antibody: 0.03
Sequence of Fcγ receptor on human NK cells (FcγRIII) (human) (P08637 17-254): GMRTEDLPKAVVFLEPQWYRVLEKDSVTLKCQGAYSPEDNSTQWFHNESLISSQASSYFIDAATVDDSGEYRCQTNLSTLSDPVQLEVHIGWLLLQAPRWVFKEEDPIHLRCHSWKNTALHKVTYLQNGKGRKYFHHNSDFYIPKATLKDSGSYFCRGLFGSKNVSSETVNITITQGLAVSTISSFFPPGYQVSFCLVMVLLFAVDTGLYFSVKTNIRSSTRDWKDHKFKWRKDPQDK

[4] = molecular target: human complement factor C1q (human) (UniProt P02745); assay: C1q ELISA, antibody coated; background OD405 0.079
Sequence of human complement factor C1q (human) (P02745 23-245 limits assumed, chain 1 of 3): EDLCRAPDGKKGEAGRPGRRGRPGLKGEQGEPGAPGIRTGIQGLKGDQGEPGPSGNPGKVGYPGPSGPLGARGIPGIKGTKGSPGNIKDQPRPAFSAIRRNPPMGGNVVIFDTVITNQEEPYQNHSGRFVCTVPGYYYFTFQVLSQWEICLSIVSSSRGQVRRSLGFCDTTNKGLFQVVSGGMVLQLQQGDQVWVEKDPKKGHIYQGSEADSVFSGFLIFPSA
Sequence of human complement factor C1q (human) (P02746 28-253 limits assumed, chain 2 of 3, further chain): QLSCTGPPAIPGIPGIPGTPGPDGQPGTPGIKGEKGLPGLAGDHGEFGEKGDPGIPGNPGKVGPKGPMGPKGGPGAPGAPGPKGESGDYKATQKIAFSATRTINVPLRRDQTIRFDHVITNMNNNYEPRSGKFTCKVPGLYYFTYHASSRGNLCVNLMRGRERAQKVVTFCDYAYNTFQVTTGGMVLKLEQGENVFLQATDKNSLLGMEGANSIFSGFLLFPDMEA
Sequence of human complement factor C1q (human) (P02747 29-245 limits assumed, chain 3 of 3, further chain): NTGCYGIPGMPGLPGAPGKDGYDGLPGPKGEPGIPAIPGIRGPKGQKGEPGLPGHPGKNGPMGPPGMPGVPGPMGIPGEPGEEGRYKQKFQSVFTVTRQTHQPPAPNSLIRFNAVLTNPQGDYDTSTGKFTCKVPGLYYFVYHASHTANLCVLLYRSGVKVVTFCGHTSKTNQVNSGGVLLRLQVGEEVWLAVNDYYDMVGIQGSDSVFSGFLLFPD

[5] = molecular target: human complement factor C3 (from human pooled serum) (human) (UniProt P01024); assay: C3 ELISA, antibody coated, human pooled serum; background OD405 0.098
Sequence of human complement factor C3 (from human pooled serum) (human) (P01024 23-1663 limits assumed): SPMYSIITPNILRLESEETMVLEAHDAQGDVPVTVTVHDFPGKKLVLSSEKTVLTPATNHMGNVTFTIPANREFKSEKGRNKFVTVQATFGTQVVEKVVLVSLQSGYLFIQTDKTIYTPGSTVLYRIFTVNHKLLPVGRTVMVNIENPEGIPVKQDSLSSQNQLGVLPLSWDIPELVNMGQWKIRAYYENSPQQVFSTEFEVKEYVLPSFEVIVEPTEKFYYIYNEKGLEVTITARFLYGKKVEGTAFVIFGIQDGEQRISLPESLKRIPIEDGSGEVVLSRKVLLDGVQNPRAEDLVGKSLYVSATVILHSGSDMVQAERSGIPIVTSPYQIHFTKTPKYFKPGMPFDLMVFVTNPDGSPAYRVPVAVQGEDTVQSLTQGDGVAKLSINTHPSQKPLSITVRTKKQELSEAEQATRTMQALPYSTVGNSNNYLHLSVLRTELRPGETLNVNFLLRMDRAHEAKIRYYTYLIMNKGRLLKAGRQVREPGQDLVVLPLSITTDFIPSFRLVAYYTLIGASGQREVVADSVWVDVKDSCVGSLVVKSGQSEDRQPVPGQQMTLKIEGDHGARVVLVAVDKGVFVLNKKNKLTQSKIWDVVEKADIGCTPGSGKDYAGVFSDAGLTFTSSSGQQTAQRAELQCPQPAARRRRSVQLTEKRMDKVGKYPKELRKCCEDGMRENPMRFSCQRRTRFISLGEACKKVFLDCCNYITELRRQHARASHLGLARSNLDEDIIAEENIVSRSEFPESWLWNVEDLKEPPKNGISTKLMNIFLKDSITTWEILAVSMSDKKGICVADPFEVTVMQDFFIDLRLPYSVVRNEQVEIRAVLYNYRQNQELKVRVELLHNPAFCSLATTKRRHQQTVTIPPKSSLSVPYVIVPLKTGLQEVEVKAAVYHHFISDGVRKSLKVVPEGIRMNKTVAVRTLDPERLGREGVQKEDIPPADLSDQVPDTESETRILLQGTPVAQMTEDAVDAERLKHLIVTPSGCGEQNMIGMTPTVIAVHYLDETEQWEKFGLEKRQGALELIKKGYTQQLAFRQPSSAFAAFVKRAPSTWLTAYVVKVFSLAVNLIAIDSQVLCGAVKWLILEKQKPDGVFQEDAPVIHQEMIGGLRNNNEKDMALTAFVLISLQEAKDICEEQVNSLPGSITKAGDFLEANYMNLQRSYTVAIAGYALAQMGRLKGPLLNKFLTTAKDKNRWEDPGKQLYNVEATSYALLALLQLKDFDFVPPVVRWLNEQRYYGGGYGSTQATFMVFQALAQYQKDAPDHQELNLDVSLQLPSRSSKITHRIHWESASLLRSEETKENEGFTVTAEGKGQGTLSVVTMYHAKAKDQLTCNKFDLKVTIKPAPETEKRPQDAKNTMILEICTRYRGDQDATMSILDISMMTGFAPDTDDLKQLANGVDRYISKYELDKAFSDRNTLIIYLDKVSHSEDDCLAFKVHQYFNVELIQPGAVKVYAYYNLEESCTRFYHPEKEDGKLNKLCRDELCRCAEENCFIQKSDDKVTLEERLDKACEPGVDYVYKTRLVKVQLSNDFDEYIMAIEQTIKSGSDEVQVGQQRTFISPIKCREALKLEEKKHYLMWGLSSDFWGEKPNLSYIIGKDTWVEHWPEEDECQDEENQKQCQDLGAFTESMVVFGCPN

% granulocytes binding antibody [1]	% monocytes binding antibody [2]	% NK cells binding antibody [3]	Bmax (OD405 at 10 µg/ml) [4]	Bmax (OD405 at 10 µg/ml) [5]	Substance
1.6%	14.5%				HuMab 002 Fc variant IgG4v1 (S228P; L235E) (antibody)
	9.4%	0.06%	0.222 OD405	0.182 OD405	human IgG4 (CLB, the Netherlands), negative control (antibody)
